Kd, koff and kon data for 14 molecules are collected here from patent publication US20230250160A1 (HOBER BIOTECH, published 2023).

Where two headings read alike, the source gives them in different places.

The target in test [1] is T1, Human Serum Albumin (human, UniProt P02768 25-609).
T1 construct: also called HSA
Briefly: SPR Biacore T200, HSA on CM5 chip, ADAPT injected, 1:1 fit. The method, then:
(§1) Sensor-based binding analysis was performed using a Biacore T200 system (GE Healthcare, Stockholm, Sweden). All analyses were conducted using CM-5 sensor chips coated with the target antigen, another irrelevant antigen and HSA. One surface was left as reference. Binding analysis was performed in PBS-T at 25° C. The ADAPT variants were diluted in PBS-T to 500 nM, 250 nM, 125 nM, 62.5 nM and 31.25 nM. The samples were injected at a flow rate of 30 ul/min for 120 s followed by injection of PBS-T for 240 s to monitor the dissociation. Surfaces were regenerated with 10 mM HCl. Kinetic parameters were determined using the Biacore Insight Evaluation software, assuming a 1:1 binding.

Test [2] deals with T1, Human Serum Albumin. The description is as above. The method, then: as §1
The source holds these as a separate data set.

For test [3], the target named is T2, Prostate Specific Antigen (human (produced in the Human Secretome …, UniProt P07288 18-261, limits assumed)).
T2 construct: also called PSA; bPSA
In words: SPR Biacore T200, target on CM5 chip, ADAPT injected, 1:1 fit. As for the experimental part:
as §1
(§2) Variants with sufficient alpha helical structure as well as monomeric elution profiles on the SEC column were further analyzed for binding towards their target protein as well as to HSA. The binding towards the target antigen used in the selection was measured by a multi-cycle analysis using SPR, showing that several binders had affinities in the μM-pM range. […] After target binding had been established, the variants were also evaluated for their ability to simultaneously bind to HSA. This was done either through an SPR capture assay or an experiment where the ADAPT was pre-incubated with saturating conditions of HSA before the binding towards the target was analyzed. […] In total, thirteen of the characterized binders from the selections towards TNFα, PSA, ANG, MYDGF and Insulin could bind both HSA and its target antigen simultaneously. FIG. 5 contains sensorgrams for the thirteen variants in the capture assay.
(In general: SPR reads the build-up and loss of mass on a sensor chip optically.)

The target in test [4] is T2, Prostate Specific Antigen. The description is as above. As for the experimental part: as §1
This is another data set of the same source.

For test [5], the target named is T3, Human recombinant Insulin (human, UniProt P01308 25-54; P01308 90-110, limits assumed).
T3 construct: also called bInsulin
The test is described as above. As for the experimental part:
as §1, §2

In test [6] the target is T3, Human recombinant Insulin. Described as above. As for the experimental part: as §1
This is another data set of the same source.

For test [7], the target named is T4, C-reactive protein (human (produced in the Human Secretome …, UniProt P02741 19-224)).
T4 construct: also called CRP; bCRP
T4 sequence (looked up): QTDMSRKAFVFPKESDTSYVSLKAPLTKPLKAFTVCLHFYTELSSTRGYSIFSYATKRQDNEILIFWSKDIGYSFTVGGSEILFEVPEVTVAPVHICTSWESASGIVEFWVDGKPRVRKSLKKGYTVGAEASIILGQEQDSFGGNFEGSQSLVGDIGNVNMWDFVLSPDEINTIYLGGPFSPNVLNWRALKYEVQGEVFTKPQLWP
The description is as above. As for the experimental part: as §1, §2

Test [8] concerns the target T4, C-reactive protein. The description is as above. As for the experimental part:
as §1
The source holds these as a separate data set.

Test [9] addresses T5, renin (human (produced in the Human Secretome …, UniProt P00797 24-406, limits assumed)).
T5 construct: also called bREN
T5 sequence (looked up): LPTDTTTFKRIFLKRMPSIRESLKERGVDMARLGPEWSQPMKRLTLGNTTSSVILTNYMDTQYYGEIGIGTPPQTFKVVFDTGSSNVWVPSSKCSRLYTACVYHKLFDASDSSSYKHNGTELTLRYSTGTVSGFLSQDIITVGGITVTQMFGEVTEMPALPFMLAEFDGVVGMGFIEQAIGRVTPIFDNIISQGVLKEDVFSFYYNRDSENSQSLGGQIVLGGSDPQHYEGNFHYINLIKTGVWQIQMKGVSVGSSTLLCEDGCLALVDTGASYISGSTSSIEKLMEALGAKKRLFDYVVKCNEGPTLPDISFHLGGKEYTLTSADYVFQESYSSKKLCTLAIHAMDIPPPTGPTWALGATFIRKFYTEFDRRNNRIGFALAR
The test is described as above. As for the experimental part:
as §1, §2

The target of test [10] is T5, renin. Described as above. The method, then:
as §1
This is another data set of the same source.

Test [11] concerns the target T6, tumor necrosis factor alpha (human (produced in the Human Secretome …, UniProt P01375 77-233, limits assumed)).
T6 construct: also called TNFα; bTNFα
Described as above. The method, then:
as §1, §2

Test [12] has as its target T6, tumor necrosis factor alpha. The test is described as above. The method, then: as §1
This is another data set of the same source.

A further test concerns the target T7, angiogenin (human (produced in the Human Secretome …, UniProt P03950 25-147)).
T7 construct: also called bANG
The description is as above. The method, then: as §1

T7 sequence (P03950 25-147 limits assumed): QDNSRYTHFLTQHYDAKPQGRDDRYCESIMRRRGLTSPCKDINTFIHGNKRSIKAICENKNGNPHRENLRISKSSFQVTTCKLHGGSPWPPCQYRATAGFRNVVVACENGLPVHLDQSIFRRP
T2 sequence (P07288 18-261 limits assumed): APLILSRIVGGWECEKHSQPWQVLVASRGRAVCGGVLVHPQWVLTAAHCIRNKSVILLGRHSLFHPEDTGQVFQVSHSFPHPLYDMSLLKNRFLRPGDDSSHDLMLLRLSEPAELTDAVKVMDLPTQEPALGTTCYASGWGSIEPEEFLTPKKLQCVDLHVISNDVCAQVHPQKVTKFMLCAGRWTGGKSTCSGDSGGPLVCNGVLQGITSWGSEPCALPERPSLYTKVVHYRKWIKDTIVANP
T3 sequence (P01308 25-54 limits assumed, chain 1 of 2): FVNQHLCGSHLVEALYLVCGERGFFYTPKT
T3 sequence (P01308 90-110 limits assumed, chain 2 of 2): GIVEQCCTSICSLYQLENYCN
T6 sequence (P01375 77-233 limits assumed): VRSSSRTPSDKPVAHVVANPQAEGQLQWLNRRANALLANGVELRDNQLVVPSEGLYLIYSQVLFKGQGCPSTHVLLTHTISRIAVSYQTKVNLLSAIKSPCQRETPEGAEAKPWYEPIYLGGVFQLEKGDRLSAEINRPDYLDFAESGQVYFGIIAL
T1 sequence (P02768 25-609 limits assumed): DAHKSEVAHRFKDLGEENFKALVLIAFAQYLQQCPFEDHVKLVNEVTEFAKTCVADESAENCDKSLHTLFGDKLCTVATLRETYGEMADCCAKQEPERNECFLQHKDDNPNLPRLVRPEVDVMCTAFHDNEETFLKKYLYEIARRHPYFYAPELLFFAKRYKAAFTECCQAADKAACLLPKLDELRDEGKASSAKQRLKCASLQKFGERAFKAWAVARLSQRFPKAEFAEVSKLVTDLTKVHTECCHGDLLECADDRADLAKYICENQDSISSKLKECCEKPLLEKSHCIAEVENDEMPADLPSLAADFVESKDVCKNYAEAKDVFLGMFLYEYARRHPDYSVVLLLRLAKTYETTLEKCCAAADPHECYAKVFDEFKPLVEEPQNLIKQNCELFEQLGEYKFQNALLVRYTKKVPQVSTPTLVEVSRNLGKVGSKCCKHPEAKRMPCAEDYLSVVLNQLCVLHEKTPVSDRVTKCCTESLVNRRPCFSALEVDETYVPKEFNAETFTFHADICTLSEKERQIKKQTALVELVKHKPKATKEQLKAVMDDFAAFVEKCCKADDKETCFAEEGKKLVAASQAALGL

For LTVAKFWALTELQEYGVSDFYANLITKAKTVEGVEALKLHILAALP (designed binder) [ADAPT variant PSA_01], the Kd (commonly the concentration at which binding is half-saturated) with Human Serum Albumin [1] stood at 1.1 nM; in the test with Human Serum Albumin [2] it was 1.1 nM; in [3], 280 nM; in test [4] it was 280 nM. The figures for the koff (with Human Serum Albumin [2]; in test [4]) were 0.0012 s⁻¹ and 0.1 s⁻¹, respectively. Moreover, the kon (usually the rate constant with which the complex forms) was determined as 1.1e+06 M⁻¹ s⁻¹ in the test with Human Serum Albumin [2] and 360000 M⁻¹ s⁻¹ in [4].
On to LVIAKAYAQYELAFYGVSDFYSDLIKKAKTVEGVEALKLHILAALP (designed binder, also called INS_01) [ADAPT variant Insulin_01], for which the Kd with Human Serum Albumin [1] stood at 3.9 nM; in the test with Human Serum Albumin [2] it was 3.9 nM; in [5] it was 950 nM; in test [6], 950 nM. The values for the koff (in the test with Human Serum Albumin [2]; in test [6]) were 0.0014 s⁻¹ and 0.22 s⁻¹, respectively. Besides, the kon with Human Serum Albumin [2] was 360000 M⁻¹ s⁻¹; in test [6] it was 240000 M⁻¹ s⁻¹.
Regarding LKVAKIIAFHELWEYGVSDFYLSLIDKAKTVEGVEALKLHILAALP (designed binder) [ADAPT variant CRP_38], the Kd with Human Serum Albumin [1] stood at 13 nM; with Human Serum Albumin [2], 13 nM; with C-reactive protein [7], 52 nM; with C-reactive protein [8], 52 nM. Besides, the values for the off-rate constant (koff) with Human Serum Albumin [2] and with C-reactive protein [8] were 0.0054 s⁻¹ and 0.0017 s⁻¹, respectively. The kon with Human Serum Albumin [2] is 410000 M⁻¹ s⁻¹; with C-reactive protein [8], 33000 M⁻¹ s⁻¹.
LHYAKIMAFHELWQYGVSDFYLQLIDKAKTVEGVEALKLHILAALP (designed binder) [ADAPT variant CRP_48]: the dissociation constant Kd in the test with Human Serum Albumin [1] came to 15 nM; in the test with Human Serum Albumin [2], 15 nM; in the test with C-reactive protein [7], 62 nM; with C-reactive protein [8], 62 nM. Besides, the koff (as a rule, the rate constant with which the complex falls apart) was determined as 0.0042 s⁻¹ with Human Serum Albumin [2] and 0.0012 s⁻¹ in the test with C-reactive protein [8]. The kon amounted to 280000 M⁻¹ s⁻¹ with Human Serum Albumin [2] and 19000 M⁻¹ s⁻¹ in the test with C-reactive protein [8].
LAVAKAYAKYELAFYGVSDFYNELILKAKTVEGVEALKLHILAALP (designed binder, also called INS_03) [ADAPT variant Insulin_03]: the Kd was 3.1 nM in the test with Human Serum Albumin [1], 3.1 nM with Human Serum Albumin [2], 1300 nM in test [5] and 1300 nM in test [6]. For the same molecule, the koff with Human Serum Albumin [2] came out at 0.0014 s⁻¹; in [6], 0.22 s⁻¹. Further, the values for the kon (with Human Serum Albumin [2]; in test [6]) were 460000 M⁻¹ s⁻¹ and 180000 M⁻¹ s⁻¹, respectively.
Regarding LYHAKWMASLELAKYGVSDFYWNLISKAKTVEGVEALKLHILAALP (designed binder) [ADAPT variant REN_01], the Kd stood at 23 nM in the test with Human Serum Albumin [1], 23 nM in the test with Human Serum Albumin [2], 76 nM with renin [9] and 76 nM in the test with renin [10]. Further, the koff in the test with Human Serum Albumin [2] came out at 0.00027 s⁻¹; with renin [10], 0.0024 s⁻¹. The kon is 12000 M⁻¹ s⁻¹ with Human Serum Albumin [2] and 32000 M⁻¹ s⁻¹ in the test with renin [10].
As for LIWAKASAVRELHRYGVSDFYYELIVKAKTVEGVEALKLHILAALP (designed binder) [ADAPT variant TNFα_09], the Kd with Human Serum Albumin [1] was 9.5 nM; with Human Serum Albumin [2] it was 9.5 nM; in [11], 3.6 nM; in [12], 3.6 nM. Further, the figures for the koff (with Human Serum Albumin [2]; in test [12]) were 0.00034 s⁻¹ and 0.0032 s⁻¹, respectively. Also, the kon is 36000 M⁻¹ s⁻¹ with Human Serum Albumin [2] and 890000 M⁻¹ s⁻¹ in [12].
With LMWAKAEAAIELVDYGVSDFYQYLISKAKTVEGVEALKLHILAALP (designed binder) [ADAPT variant REN_40], the Kd with Human Serum Albumin [1] was 5.5 nM; in the test with Human Serum Albumin [2], 5.5 nM; in the test with renin [9], 410 nM; with renin [10], 410 nM. Moreover, the koff is 0.00064 s⁻¹ in the test with Human Serum Albumin [2] and 0.0035 s⁻¹ with renin [10]. For the same molecule, the kon with Human Serum Albumin [2] was 120000 M⁻¹ s⁻¹; with renin [10] it was 8700 M⁻¹ s⁻¹.
With LSKAKAQAWHELYYYGVSDFYLSLIDKAKTVEGVEALKLHILAALP (designed binder) [ADAPT variant CRP_23], the Kd is 23 nM with Human Serum Albumin [1], 23 nM with Human Serum Albumin [2], 1900 nM with C-reactive protein [7] and 1900 nM in the test with C-reactive protein [8]. Moreover, the results for the koff with Human Serum Albumin [2] and with C-reactive protein [8] were 0.007 s⁻¹ and 0.0017 s⁻¹, respectively. In addition, the kon was 300000 M⁻¹ s⁻¹ with Human Serum Albumin [2] and 890 M⁻¹ s⁻¹ with C-reactive protein [8].
As for LRVAKSMAWHELWSYGVSDFYLRLIDKAKTVEGVEALKLHILAALP (designed binder) [ADAPT variant CRP_09], the Kd with Human Serum Albumin [1] was 7.7 nM; with Human Serum Albumin [2], 7.7 nM; with C-reactive protein [7], 1100 nM; with C-reactive protein [8], 1100 nM. Further, the koff in the test with Human Serum Albumin [2] amounted to 0.0038 s⁻¹; in the test with C-reactive protein [8] it was 0.0013 s⁻¹. In addition, the kon stood at 490000 M⁻¹ s⁻¹ with Human Serum Albumin [2] and 1200 M⁻¹ s⁻¹ with C-reactive protein [8].
Take LFRAKVWAVWELDQYGVSDFYDELIWKAKTVEGVEALKLHILAALP (designed binder) [ADAPT variant PSA_05]: the Kd in the test with Human Serum Albumin [1] was found to be 3.3 nM; with Human Serum Albumin [2], 3.3 nM; in [3], 300 nM; in test [4], 300 nM. Besides, the koff with Human Serum Albumin [2] was 0.0003 s⁻¹; in [4], 0.059 s⁻¹. Also, the figures for the kon (with Human Serum Albumin [2]; in test [4]) were 92000 M⁻¹ s⁻¹ and 200000 M⁻¹ s⁻¹, respectively.

B1: ADAPT variant TNFα_05 (designed binder)
chain: LIWAKAEAVQELFMYGVSDFYYDLIIKAKTVEGVEALKLHILAALP
notes: Single domain of about 6 kDa, made in E. coli, purified on HSA resin
Consider B1, for which the Kd with Human Serum Albumin [1] came out at 18 nM; with Human Serum Albumin [2], 18 nM; in [11] it was 2.5 nM; in [12] it was 2.5 nM. Also, the koff with Human Serum Albumin [2] stood at 0.00039 s⁻¹; in [12] it was 0.0037 s⁻¹. The figures for the kon (with Human Serum Albumin [2]; in test [12]) were 21000 M⁻¹ s⁻¹ and 1.5e+06 M⁻¹ s⁻¹, respectively.
For LYVAKDNADWELWQYGVSDFYRSLIWKAKTVEGVEALKLHILAALP (designed binder) [ADAPT variant ANG_16], in the test with Human Serum Albumin [1], the Kd came out at 1 nM. In the test with Human Serum Albumin [2], this molecule yielded a Kd of 1 nM, a koff of 3e-05 s⁻¹ and a kon of 29000 M⁻¹ s⁻¹. In the test with angiogenin, this molecule registered a Kd of 5.1 nM, a koff of 0.0005 s⁻¹ and a kon of 99000 M⁻¹ s⁻¹.
For the molecule LYWAKDYADYELWQYGVSDFYRSLIWKAKTVEGVEALKLHILAALP (designed binder, also called ANG_2) [ADAPT variant ANG_02], in the test with Human Serum Albumin [1], the Kd came out at 2 nM. Moreover, in the test with Human Serum Albumin [2], the Kd came out at 2 nM, the koff turned out to be 4.5e-05 s⁻¹ and the kon came to 23000 M⁻¹ s⁻¹. In the test with angiogenin, this molecule returned a Kd of 14 nM, a koff of 0.0007 s⁻¹ and a kon of 52000 M⁻¹ s⁻¹.
